Results published in the supplement of paper PMC9876800.

System: peptide library, one residue held at a place counted from the S/T acceptor
Test: relative phosphorylation of the sub-library (ratio to the mean residue at this position); higher = residue favoured
Conditions: human
Outline: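 Relative sub-library phosphorylation is a ratio to the mean residue at the same position. Purified recombinant kinases were incubated under kinase-specific conditions with biotinylated degenerate peptide sub-libraries, each fixing one residue at one position around a central Ser/Thr, using 50 μM peptide and 50 μM ATP spiked with γ-32P-ATP for 90 min. Spots captured on streptavidin membranes were phosphorimaged and quantified by densitometry.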

Chain of PRKD3, construct: Full length (O94806 whole entry, looked up): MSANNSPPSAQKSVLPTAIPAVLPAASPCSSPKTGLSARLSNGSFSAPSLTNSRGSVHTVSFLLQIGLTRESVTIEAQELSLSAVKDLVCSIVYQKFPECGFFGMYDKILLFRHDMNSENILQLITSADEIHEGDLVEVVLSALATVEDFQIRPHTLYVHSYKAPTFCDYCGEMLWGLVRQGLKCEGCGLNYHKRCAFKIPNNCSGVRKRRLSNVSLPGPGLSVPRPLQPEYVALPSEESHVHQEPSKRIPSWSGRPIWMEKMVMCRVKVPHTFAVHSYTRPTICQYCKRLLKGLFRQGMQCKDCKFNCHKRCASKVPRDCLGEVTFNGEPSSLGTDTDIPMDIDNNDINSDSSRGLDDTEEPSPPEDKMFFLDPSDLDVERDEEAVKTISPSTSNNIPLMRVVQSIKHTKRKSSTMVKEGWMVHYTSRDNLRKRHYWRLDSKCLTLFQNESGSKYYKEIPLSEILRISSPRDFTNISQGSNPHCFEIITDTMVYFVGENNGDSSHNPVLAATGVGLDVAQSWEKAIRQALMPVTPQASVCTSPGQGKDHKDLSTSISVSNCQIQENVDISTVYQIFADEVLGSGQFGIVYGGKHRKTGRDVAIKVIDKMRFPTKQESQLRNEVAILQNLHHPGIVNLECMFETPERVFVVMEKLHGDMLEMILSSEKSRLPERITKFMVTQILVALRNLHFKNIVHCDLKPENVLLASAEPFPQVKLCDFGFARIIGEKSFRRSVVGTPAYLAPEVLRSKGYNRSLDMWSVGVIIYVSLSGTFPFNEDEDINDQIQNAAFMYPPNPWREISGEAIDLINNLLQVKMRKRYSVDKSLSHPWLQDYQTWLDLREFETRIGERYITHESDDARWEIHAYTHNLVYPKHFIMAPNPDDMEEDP
Chain of MAPK3, construct: Full length (P27361 whole entry, looked up): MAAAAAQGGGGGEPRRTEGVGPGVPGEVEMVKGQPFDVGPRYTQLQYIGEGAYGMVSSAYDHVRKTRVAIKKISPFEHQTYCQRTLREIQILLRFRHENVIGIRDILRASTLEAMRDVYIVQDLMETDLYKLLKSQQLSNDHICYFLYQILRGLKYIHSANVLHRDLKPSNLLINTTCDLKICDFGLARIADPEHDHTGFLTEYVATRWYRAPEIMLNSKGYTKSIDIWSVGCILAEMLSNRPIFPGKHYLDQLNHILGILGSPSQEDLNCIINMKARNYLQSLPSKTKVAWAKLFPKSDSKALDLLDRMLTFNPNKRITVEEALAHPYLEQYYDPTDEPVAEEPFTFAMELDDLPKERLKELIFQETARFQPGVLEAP
Chain of TGFBR1, construct: aa20-end (P36897 20-503, looked up): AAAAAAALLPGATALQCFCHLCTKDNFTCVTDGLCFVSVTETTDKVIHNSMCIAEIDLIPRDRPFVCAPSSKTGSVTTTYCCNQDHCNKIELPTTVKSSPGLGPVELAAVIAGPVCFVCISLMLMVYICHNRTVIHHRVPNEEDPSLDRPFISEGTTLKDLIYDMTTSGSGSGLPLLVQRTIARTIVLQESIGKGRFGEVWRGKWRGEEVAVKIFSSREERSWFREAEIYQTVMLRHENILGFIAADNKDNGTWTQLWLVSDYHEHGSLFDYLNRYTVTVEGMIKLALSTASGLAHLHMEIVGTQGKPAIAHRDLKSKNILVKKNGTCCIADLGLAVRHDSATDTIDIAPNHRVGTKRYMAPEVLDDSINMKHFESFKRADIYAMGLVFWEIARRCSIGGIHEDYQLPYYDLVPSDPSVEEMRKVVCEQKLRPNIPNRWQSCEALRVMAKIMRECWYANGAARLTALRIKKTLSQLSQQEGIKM

PRKD3, construct: Full length (from UniProt O94806)
relative phosphorylation
Conditions	at +1	at +2	at +3	at +4	at -1	at -2	at -3	at -4	at -5
A fixed	0.865	1.03	0.829	0.85	0.845	1.21	1.03	1.31	0.989
D fixed	0.493	0.636	0.664	0.709	0.598	0.341	0.231	0.402	0.344
E fixed	0.444	0.536	0.561	0.66	0.486	0.418	0.272	0.711	0.332
F fixed	1.09	1.07	1	1.09	0.812	0.56	0.417	0.797	0.895
G fixed	0.727	1.06	1.17	1.21	0.6	0.453	0.375	1.21	0.563
H fixed	1.33	1.36	1.22	1.29	1.15	0.839	0.572	1.14	0.525
I fixed	1.02	0.628	0.744	0.795	0.526	0.496	0.321	0.678	1.11
K fixed	1.31	1.27	1.21	1.22	2.07	2.85	2.2	1.98	0.895
L fixed	1.06	0.824	0.957	0.908	1.18	0.867	0.359	0.809	3.37
M fixed	1.16	0.929	0.883	0.854	1.03	1.43	0.444	1.15	0.774
N fixed	1.48	1.26	1.02	1.1	1.38	0.795	0.418	0.649	0.483
P fixed	0.453	1.24	1.72	1.31	1.1	0.374	0.478	0.476	1.08
Q fixed	1.08	0.877	0.984	1.1	0.889	1.83	0.588	1.16	0.866
R fixed	1.28	1.38	1.05	0.774	1.79	2.58	8.02	2.12	1.8
V fixed	0.988	0.718	0.812	0.774	0.751	0.778	0.333	0.85	1.61
W fixed	0.885	1.05	0.991	1.31	0.708	0.526	0.436	0.638	0.544
Y fixed	1.35	1.12	1.19	1.04	1.08	0.657	0.51	0.934	0.827
pThr fixed	0.532	0.513	0.622	0.51	0.321	0.349	0.266	0.508	0.377
pTyr fixed	0.589	0.609	0.669	0.608	0.662	0.409	0.495	0.511	0.572

TGFBR1, construct: aa20-end (from UniProt P36897)
relative phosphorylation
Conditions	at +1	at +2	at +3	at +4	at -1	at -2	at -3	at -4	at -5
A fixed	0.823	1.16	0.888	0.966	0.853	0.688	0.982	1.11	1.12
D fixed	1.69	1.71	1.48	1.29	1.42	1.62	1.5	1.39	1.15
E fixed	2.27	1.57	1.94	1.55	1.78	7.31	1.73	1.22	1.21
F fixed	1	1.05	0.773	0.942	0.858	0.397	0.748	0.805	0.908
G fixed	0.779	1.13	1.63	1.2	0.834	0.712	1.19	1.33	1.1
H fixed	1.15	0.728	0.792	0.846	0.968	0.513	0.894	0.991	0.944
I fixed	1.03	1.07	0.954	1.01	0.86	0.474	0.814	0.96	0.929
K fixed	0.396	0.545	0.448	0.59	0.5	0.4	0.598	0.719	0.892
L fixed	0.751	0.706	0.899	0.908	1.18	0.486	0.841	0.943	0.878
M fixed	1.25	0.915	0.916	0.871	1.35	0.545	1.1	1.02	0.983
N fixed	0.733	0.874	0.809	0.879	1.06	0.767	1.06	1.15	1.31
P fixed	0.522	1.07	1.32	1.32	0.592	0.459	0.982	1.09	1.03
Q fixed	0.826	0.717	0.794	0.834	1.04	0.893	0.992	0.865	0.917
R fixed	0.357	0.489	0.467	0.519	0.589	0.435	0.633	0.697	0.844
V fixed	1.05	1.18	1.02	0.959	1.26	0.501	0.924	1.02	0.978
W fixed	0.919	0.954	0.915	1.27	0.804	0.4	1.2	0.787	0.822
Y fixed	1.44	1.12	0.956	1.03	1.04	0.401	0.815	0.89	0.98
pThr fixed	3.78	1.38	1.04	1.62	1.19	1.48	1.07	0.963	0.853
pTyr fixed	4.22	1.82	1.39	1.66	1.51	0.639	1.08	1.05	0.835

MAPK3, construct: Full length (from UniProt P27361)
relative phosphorylation
Conditions	at +1	at +2	at +3	at +4	at -1	at -2	at -3	at -4	at -5
A fixed	1.21	1.07	1.04	0.886	0.999	1.2	1.23	1.09	1.06
D fixed	0.0833	0.582	0.614	0.81	0.5	0.407	0.989	1.19	1.31
E fixed	0.0773	0.244	0.706	0.732	0.509	0.454	1.27	1.35	1.2
F fixed	0.372	1.1	1.15	1.22	0.802	0.577	0.808	0.946	1.09
G fixed	0.947	1.34	1.13	1.02	1	0.724	1.32	1.25	1.25
H fixed	0.217	1.26	1.11	1.07	0.975	0.461	0.949	0.914	1.11
I fixed	0.292	0.775	0.878	0.943	0.67	1.18	0.792	0.82	0.724
K fixed	0.179	1.58	0.699	1.31	1.35	0.345	0.663	0.874	0.904
L fixed	0.398	1.11	1.08	1.02	1.31	1.42	0.917	0.958	0.903
M fixed	0.276	0.987	0.971	1.09	1.39	1.29	1.08	1.09	0.907
N fixed	0.155	1.26	0.786	0.931	0.785	0.613	0.989	0.855	0.93
P fixed	11.6	0.628	1.56	0.896	1.26	4.97	1.74	1.18	1.11
Q fixed	0.159	0.788	0.736	1.01	1.1	0.82	1.05	0.942	0.975
R fixed	0.223	2.13	0.979	1.1	1.85	0.566	0.907	0.905	0.841
V fixed	0.291	0.711	0.879	0.903	0.746	1.22	0.837	0.777	0.783
W fixed	0.261	0.681	1.55	1.12	0.654	0.386	0.659	0.913	0.781
Y fixed	0.211	0.744	1.13	0.931	1.08	0.373	0.798	0.948	1.13
pThr fixed	0.338	0.662	0.663	0.75	0.373	0.941	1.23	1.23	1.41
pTyr fixed	0.323	0.38	1.01	1.08	0.444	0.686	1.29	1.37	1.25

PRKCA, construct: Full length (from UniProt P17252)
relative phosphorylation
Conditions	at +1	at +2	at +3	at +4	at -1	at -2	at -3	at -4	at -5
A fixed	0.485	0.407	0.553	0.819	0.905	0.911	0.726	1.03	1.09
D fixed	0.185	0.216	0.528	0.597	0.541	0.467	0.389	0.578	0.646
E fixed	0.21	0.16	0.526	0.514	0.472	0.407	0.439	0.724	0.643
F fixed	1.74	0.477	1.01	0.553	0.637	0.727	0.963	0.892	1.14
G fixed	0.648	0.42	1.16	1.46	2.07	1.34	1.23	1.47	1.53
H fixed	0.597	1.23	1.12	1.09	0.948	0.985	1.05	1.04	0.997
I fixed	1.64	0.499	0.602	0.58	0.389	0.413	0.501	0.59	0.646
K fixed	1.69	3.79	1.99	2.3	1.88	1.79	1.6	1.39	1.43
L fixed	1.42	0.395	0.843	0.499	0.638	0.469	0.493	0.549	0.688
M fixed	1.33	0.571	0.741	0.564	0.826	0.678	0.796	0.649	0.626
N fixed	0.561	0.86	0.918	1.04	1.39	1.08	1.2	0.915	0.877
P fixed	0.364	0.401	0.697	1.55	1.26	1.13	1.43	1.45	1.22
Q fixed	1.41	0.684	1.03	0.926	1.04	1.15	0.886	1.12	0.716
R fixed	1.87	4.65	2.46	2.26	2.01	3.23	3.44	1.59	1.84
V fixed	1.26	0.464	0.662	0.703	0.661	0.522	0.447	0.92	0.638
W fixed	0.729	0.586	0.972	0.797	0.475	1	0.589	1.28	1.38
Y fixed	0.867	1.19	1.19	0.747	0.862	0.686	0.811	0.805	0.884
pThr fixed	0.729	0.345	0.663	0.482	0.348	0.603	0.636	0.807	0.655
pTyr fixed	0.38	0.31	0.58	0.427	0.983	0.679	0.98	0.802	1.11
